# In article PMC3343046, “Overexpression of the Catalytically Impaired Taspase1^T234V or Taspase1^D233A Variants Does Not Have a Dominant Negative Effect in T(4;11) Leukemia Cells” (PLoS ONE, 2012):
# T1: TaspCyt (GFP-tagged Taspase1 with a C-terminal nuclear export signal) (human, UniProt Q9H6P5 1-420)
# T1 construct: Threonine Aspartase 1 (Taspase1), human, 420 aa; open reading frame cloned from MV4;11 and THP-1 cells; Still catalytically active, so probably processed in cells into α- and β-subunits; also called GFP-TaspCyt; pTaspcyt; source: HeLa, transfected, in living cells; not shown: NES (strong nuclear export signal), C-terminal, kept
# T1 sequence (looked up): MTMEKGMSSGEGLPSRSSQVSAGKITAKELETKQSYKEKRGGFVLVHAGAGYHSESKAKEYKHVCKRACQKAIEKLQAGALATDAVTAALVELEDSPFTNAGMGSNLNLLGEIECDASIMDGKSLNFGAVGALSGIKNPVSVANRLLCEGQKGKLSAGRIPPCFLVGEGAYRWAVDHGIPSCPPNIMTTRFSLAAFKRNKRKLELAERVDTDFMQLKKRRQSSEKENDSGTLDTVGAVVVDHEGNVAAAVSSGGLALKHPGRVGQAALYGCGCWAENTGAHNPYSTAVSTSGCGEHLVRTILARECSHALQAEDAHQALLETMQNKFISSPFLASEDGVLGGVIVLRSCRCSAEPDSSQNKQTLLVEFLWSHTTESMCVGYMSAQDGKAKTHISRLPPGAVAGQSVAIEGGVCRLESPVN
# B1: Taspase1-mCherry (wild type) (enzyme, human, UniProt Q9H6P5 1-420, looked up)
# chain: MTMEKGMSSGEGLPSRSSQVSAGKITAKELETKQSYKEKRGGFVLVHAGAGYHSESKAKEYKHVCKRACQKAIEKLQAGALATDAVTAALVELEDSPFTNAGMGSNLNLLGEIECDASIMDGKSLNFGAVGALSGIKNPVSVANRLLCEGQKGKLSAGRIPPCFLVGEGAYRWAVDHGIPSCPPNIMTTRFSLAAFKRNKRKLELAERVDTDFMQLKKRRQSSEKENDSGTLDTVGAVVVDHEGNVAAAVSSGGLALKHPGRVGQAALYGCGCWAENTGAHNPYSTAVSTSGCGEHLVRTILARECSHALQAEDAHQALLETMQNKFISSPFLASEDGVLGGVIVLRSCRCSAEPDSSQNKQTLLVEFLWSHTTESMCVGYMSAQDGKAKTHISRLPPGAVAGQSVAIEGGVCRLESPVN
# notes: Threonine Aspartase 1 (Taspase1), human, 420 aa; open reading frame cloned from MV4;11 and THP-1 cells; The wild-type proenzyme is autoproteolytically processed in cells into α- and β-subunits; also called Tasp-mCherry; Tasp-mCh; source: HeLa, transfected, in living cells
# B2: Tasp^T234V-mCherry (enzyme, human, UniProt Q9H6P5 1-420, looked up)
# chain: MTMEKGMSSGEGLPSRSSQVSAGKITAKELETKQSYKEKRGGFVLVHAGAGYHSESKAKEYKHVCKRACQKAIEKLQAGALATDAVTAALVELEDSPFTNAGMGSNLNLLGEIECDASIMDGKSLNFGAVGALSGIKNPVSVANRLLCEGQKGKLSAGRIPPCFLVGEGAYRWAVDHGIPSCPPNIMTTRFSLAAFKRNKRKLELAERVDTDFMQLKKRRQSSEKENDSGTLDVVGAVVVDHEGNVAAAVSSGGLALKHPGRVGQAALYGCGCWAENTGAHNPYSTAVSTSGCGEHLVRTILARECSHALQAEDAHQALLETMQNKFISSPFLASEDGVLGGVIVLRSCRCSAEPDSSQNKQTLLVEFLWSHTTESMCVGYMSAQDGKAKTHISRLPPGAVAGQSVAIEGGVCRLESPVN
# notes: Threonine Aspartase 1 (Taspase1), human, 420 aa, with Thr234 changed to Val; Not autoprocessed; stays a proenzyme; also called Taspase1^T234V-mCherry; catalytically dead Taspase1 mutant; source: HeLa, transfected, in living cells
# B3: Tasp^D233A-mCherry (enzyme, human, UniProt Q9H6P5 1-420, looked up)
# chain: MTMEKGMSSGEGLPSRSSQVSAGKITAKELETKQSYKEKRGGFVLVHAGAGYHSESKAKEYKHVCKRACQKAIEKLQAGALATDAVTAALVELEDSPFTNAGMGSNLNLLGEIECDASIMDGKSLNFGAVGALSGIKNPVSVANRLLCEGQKGKLSAGRIPPCFLVGEGAYRWAVDHGIPSCPPNIMTTRFSLAAFKRNKRKLELAERVDTDFMQLKKRRQSSEKENDSGTLATVGAVVVDHEGNVAAAVSSGGLALKHPGRVGQAALYGCGCWAENTGAHNPYSTAVSTSGCGEHLVRTILARECSHALQAEDAHQALLETMQNKFISSPFLASEDGVLGGVIVLRSCRCSAEPDSSQNKQTLLVEFLWSHTTESMCVGYMSAQDGKAKTHISRLPPGAVAGQSVAIEGGVCRLESPVN
# notes: Threonine Aspartase 1 (Taspase1), human, 420 aa, with Asp233 changed to Ala; Impaired in autoproteolytic cis-cleavage; also called Taspase1^D233A-mCherry; highly attenuated Taspase1 variant; source: HeLa, transfected, in living cells
# Target: T1, TaspCyt (GFP-tagged Taspase1 with a …)
# Assay: translocation-based protein interaction assay; living HeLa transfectants, 24 h after transfection; nuclear/nucleolar recruitment of a cytoplasmic fluorescent fusion by a nuclear/nucleolar fusion; fluorescence microscopy, and confocal microscopy with the Manders overlap coefficient R
# Conditions: partners not purified
row,Binder,Manders overlap coefficient R
1,B1,0.387
2,B2,0.388
3,B3,0.394
